This is an account of results in patent US20210338852A1 (NIHON MEDI PHYSICS, published 2021).

Assay [1] addresses T1, mucin subtype 5AC (MUC5AC) (human (from transplanted human …, UniProt P98088 28-5654, limits assumed)).
T1 construct: Secretory mucin glycoprotein; target present in tumor tissue sections, not as purified protein
Briefly: in vitro autoradiography; mean of small ROIs in MUC5AC positive vs negative tumor sections.

Assay [2] deals with T1, mucin subtype 5AC (MUC5AC). As to the kind of experiment: in vitro autoradiography; whole-section ROI of MUC5AC positive vs negative tumor sections.

B1: ^225Ac-labeled anti-MUC5AC humanized antibody prepared using ^225Ac-labeled DOTAGA-DBCO (monovalent antibody; H01L03) (antibody, human IgG1, kappa, V domains shown)
VH: EVQLLESGGGLVQPGGSLRLSCAASGFTFSNYGMSWVRQAPGKGLEWVSTISNSGRYTYFPDSVKGRFTISRDNSKNTLYLQMNSLRAEDTALYYCTRHLDYANYDAMDYWGQGTLVTVSS
VL: DIQMTQSPSSLSASVGDRVTITCRASKSVTTSDFSYMHWYQQKPGKSPKLLIYLASNLESGVPSRFSGSGSGTDFSLTISSLQPEDFATYYCQHSREFPWTFGGGTKVEIKR
modifications: Fc region site-specifically modified (Lys252, Eu numbering) by one molecule per antibody of antibody-modification peptide (SEQ ID NO: 10 with Xaa2 = lysine, disulfide between its two cysteines, N-terminal diglycolic acid-PEG8-ethyl azide); azide click-reacted with ^225Ac-chelated DOTAGA-DBCO
notes: also called RI-labeled anti-MUC5AC humanized antibody prepared using ^225Ac-labeled DOTAGA-DBCO; ^225Ac-labeled antibody
As to B1, in assay [1], the “binding ratio to the MUC5AC positive tumor and the negative tumor” value (shortened to “binding ratio”) was found to be 6.5 fold.

B2: ^89Zr-labeled anti-MUC5AC humanized antibody prepared using ^89Zr-labeled DOTAGA-DBCO (monovalent antibody; H01L03) (antibody, human IgG1, kappa, V domains shown)
VH: EVQLLESGGGLVQPGGSLRLSCAASGFTFSNYGMSWVRQAPGKGLEWVSTISNSGRYTYFPDSVKGRFTISRDNSKNTLYLQMNSLRAEDTALYYCTRHLDYANYDAMDYWGQGTLVTVSS
VL: DIQMTQSPSSLSASVGDRVTITCRASKSVTTSDFSYMHWYQQKPGKSPKLLIYLASNLESGVPSRFSGSGSGTDFSLTISSLQPEDFATYYCQHSREFPWTFGGGTKVEIKR
modifications: Fc region site-specifically modified (Lys252, Eu numbering) by one molecule per antibody of antibody-modification peptide (SEQ ID NO: 10 with Xaa2 = lysine, disulfide between its two cysteines, N-terminal diglycolic acid-PEG8-ethyl azide); azide click-reacted with ^89Zr-chelated DOTAGA-DBCO
notes: also called RI-labeled anti-MUC5AC humanized antibody prepared using ^89Zr-labeled DOTAGA-DBCO; ^89Zr complex-labeled antibody
With B2, in assay [2], the “binding ratio” value was 138 fold.

B3: ^89Zr-labeled anti-MUC5AC humanized antibody prepared using ^89Zr-labeled DOTA-Bn-DBCO (monovalent antibody; H01L03) (antibody, human IgG1, kappa, V domains shown)
VH: EVQLLESGGGLVQPGGSLRLSCAASGFTFSNYGMSWVRQAPGKGLEWVSTISNSGRYTYFPDSVKGRFTISRDNSKNTLYLQMNSLRAEDTALYYCTRHLDYANYDAMDYWGQGTLVTVSS
VL: DIQMTQSPSSLSASVGDRVTITCRASKSVTTSDFSYMHWYQQKPGKSPKLLIYLASNLESGVPSRFSGSGSGTDFSLTISSLQPEDFATYYCQHSREFPWTFGGGTKVEIKR
modifications: Fc region site-specifically modified (Lys252, Eu numbering) by one molecule per antibody of antibody-modification peptide (SEQ ID NO: 10 with Xaa2 = lysine, disulfide between its two cysteines, N-terminal diglycolic acid-PEG8-ethyl azide); azide click-reacted with ^89Zr-chelated DOTA-Bn-DBCO (formula L1-4)
notes: also called RI-labeled anti-MUC5AC humanized antibody prepared using ^89Zr-labeled DOTA-Bn-DBCO
Regarding B3, the “binding ratio” value in assay [2] turned out to be 151 fold.
